The values below are quoted from earlier work in PMC8588233.

Where two headings read alike, the source gives them in different places.

The target in data set [1] is HER2 (Homo sapiens) (UniProt P04626).
Data set [2] shares this target. This is another data set of the same source.
The target is the same in data set [3]. This is another data set of the same source.

The term Kd denotes a measure of binding affinity in units of concentration. On to AHNP (111In-DTPA-peptide-PEG), for which the equilibrium dissociation constant (Kd) with HER2 (Homo sapiens) [1] is 300 nM.

AHNP: the Kd in the data set with HER2 (Homo sapiens) [2] was 395 nM. As for KCCYSL peptide, the Kd in the data set with HER2 (Homo sapiens) [3] was 295 nM.
